The experiment deals with human α-synuclein (human, UniProt P37840 1-140, biotin (for BLI, sites not stated); 15N-labelled (for NMR)). Description: BLI. Background: BLI is a label-free optical method that tracks binding on a fibre tip over time.

B1: mouse nicotinamide mononucleotide adenylyltransferase 3 (enzyme)
chain: MKNRIPVVLLACGSFNPITNMHLRLFEVARDHLHQTGRYQVIEGIISPVNDSYGKKDLVASHHRVAMARLALQTSDWIRVDPWESEQAQWMETVKVLRHHHRELLRSSAQMDGPDPSKTPSASAALPELKLLCGADVLKTFQTPNLWKDTHIQEIVEKFGLVCVSRSGHDPERYISDSPILQQFQHNIHLAREPVLNEISATYVRKALGQGQSVKYLLPEAVITYIRDQGLYINDGSWKGKGKTG
A word on the Kd: it is a measure of binding affinity in units of concentration. Lower therefore signals higher affinity. Turning to B1, the Kd amounted to 1900 ± 30 nM.

(Values after article PMC9108885 (The Journal of Biological Chemistry, 2022).)
